Changes are numbered by the printed parent chain. Names and notes keep the numbering of the source. Values joined by “and” are separate entries in the source; they are usually repeats but may differ in a detail not shown here. Equal values may be shown once. Values belong to the molecule of their own block, whether it stands above or below them.
Key:
[1] = molecular target: CXCL8 receptors on bovine peripheral blood neutrophils; assay: 1000 ng/ml biotCXCL8 on medium-treated bovine neutrophils; streptavidin-enzyme and ABTS; ELISA plate reader
[2] = molecular target: CXCL8 receptors on bovine peripheral blood neutrophils; assay: displacement of 20 pM 125I-CXCL8 from 10^6 bovine neutrophils, 45 min on ice
[3] = molecular target: CXCL8 receptors on bovine peripheral blood neutrophils; assay: biotCXCL8 binding inhibition on bovine neutrophils; 10 ng/ml unlabeled CXCL8 2 h at 4 C, wash, then 1 ug/ml biotCXCL8; cell ELISA
[4] = molecular target: CXCL8 receptors on bovine peripheral blood neutrophils; assay: cell-based or functional assay
[5] = molecular target: CXCL8 receptors on bovine peripheral blood neutrophils; assay: displacement of 20 pM 125I-CXCL8 from bovine neutrophils; reference is unlabeled wildtype CXCL8
[6] = molecular target: CXCL8 receptors on bovine peripheral blood neutrophils; assay: biotCXCL8 binding inhibition on bovine neutrophils; 10 ng/ml analogue 2 h at 4 C, wash, then 1 ug/ml biotCXCL8; cell ELISA

IC50 [2]: 0.12 nM
percent of ^biotCXCL8 binding blocked [3]: 30%
Molecule: bovine CXCL8 (wild type, unlabeled) (from UniProt P79255 23-101) (ligand)

IC50, inhibition of bovine neutrophil chemotaxis to 1 µg/ml (129 nM) CXCL8 [4]: 0.11 nM
agonist activity: chemotaxis of bovine neutrophils to 100 ng/ml analogue, as percent of the response to 1 ng/ml CXCL8 [4]: 13.9%
agonist activity: chemotaxis of bovine neutrophils to 100 ng/ml analogue, as percent of the response to 100 ng/ml CXCL8 [4]: 5.4%
concentration for complete blocking of bovine neutrophil chemotaxis to 1 µg/ml CXCL8 [4]: 10 nM
concentration for complete inhibition of bovine neutrophil chemotaxis to human CXCL5, CXCL1 or CXCL8 [4]: 3 nM and 20 nM
concentration reducing bovine neutrophil chemotaxis to 1 ng/ml hCXCL1 to 50% [4]: 0.26 nM
concentration reducing bovine neutrophil chemotaxis to 1 ng/ml hCXCL5 to 50% [4]: 0.06 nM
concentration reducing bovine neutrophil chemotaxis to 10 ng/ml hCXCL8 by 50% [4]: 0.04 nM
reduction of bovine neutrophil chemotactic response to 1 µg/ml (129 nM) CXCL8 by 12.9 pM analogue [4]: 33%
IC50 [2]: 0.004 nM
fold more effective than wildtype CXCL8 in inhibiting 125I-CXCL8 binding [5]: 100 fold
percent of ^biotCXCL8 binding blocked [6]: 95%
B1: bovine CXCL8(3-74)K11R/G31P (ligand)
chain: TELRCQCIRTHSTPFHPKFIKELRVIESPPHCENSEIIVKLTNGNEVCLNPKEKWVQKVVQVFVKRAEKQDP

Further lines, the molecule ahead of its results:

Molecule: biotinylated CXCL8 (from UniProt P79255 23-101) (ligand)
OD405 [1]: 0.5 to 0.6 OD405

B2: bovine CXCL8(3-74)K11R/P32G (ligand)
chain: B1 chain with P29G, P30G
agonist activity: chemotaxis of bovine neutrophils to 100 ng/ml analogue, as percent of the CXCL8 response [4]: 38.3%
percent of ^biotCXCL8 binding blocked [6]: 48%

From patent US20090270318A1
